Legend:
[1] = system: human LoVo colon tumour xenografts; type: in vivo; conditions: 3.19.3 10 mg/kg 2×wk i.p., Zactima 50 mg/kg/day p.o.
Method: The anti-tumor activity of monoclonal antibody 3.19.3 was evaluated in the LoVo xenograft model of colorectal cancer. Briefly, LoVo cells were cultured in flasks as routine until the cells reached sub-confluence. Immunodeficient 8 week old male NCr nude mice were used. Cell suspensions containing 3×10^6 cells were injected subcutaneously into the right flank of the mice, and after the tumour volume reached 200 mm^3, the mice were randomized in groups and the treatments were initiated. mAb 3.19.3 10 mg/kg in saline was injected intraperitoneally, twice per week for 2 weeks. Zactima™ was treated peroral daily at doses ranging from 25 to 50 mg/kg in water containing 1% Tween80. The dimensions of each tumor were measured twice per week. The volume of the tumor was calculated as: Volume=Length×(Width)^2×0.5 (cm^3).

[2] = system: human HT29 colon tumour xenografts; test: HT29 xenograft efficacy study; type: in vivo; conditions: AZD2171 1.5 mg/kg/day p.o. d 0-27, 3.19.3 10 mg/kg i.p. day 0, 3, 7, 10, 14, 17, 21 and 24
Method: The efficacy of mAb 3.19.3 in combination with AZD2171 was evaluated in human HT29 xenografts. Briefly, 5×10^6 HT29 tumour cells in 0.1 ml of serum free Roswell Park Memorial Institute (RPMI)-1640 medium were injected subcutaneously into the flanks of 60 athymic (nu/nu genotype) mice. When tumours reached a volume of 200 to 400 mm^3 (9-10 days), mice were randomized into groups (8 per group) and treatment started (day 0).
The control group (Group 1) received a daily oral (p.o.) administration of vehicle only for 28 consecutive days (day 0-27). Group 2 treatment consisted of a daily p.o. administration of AZD2171 alone at 1.5 mg/kg/administration for 28 consecutive days (day 0-27). AZD2171 was prepared as a suspension in 1% polysorbate 80 (i.e. a 1% (v/v) solution of polyoxyethylene (20) sorbitan mono-oleate in deionised water). […]
Tumour volumes (mm^3) were assessed at least twice weekly by bilateral Vernier caliper measurement and, taking length to be the longest diameter across the tumor and width the corresponding perpendicular, calculated using the formula (π/6)×(length×width)×√ (length×width). Growth inhibition from the start of treatment was assessed by comparison of the differences in tumor volume between control and treated groups. […] For all mice, the tumours were excised and weights recorded upon termination of the study.

[3] = molecular target: T1, Angiopoietin-2 binding to Tie-2 (Homo sapiens, UniProt O15123); test: Competitive binding assay (modified ELISA): inhibition of Angiopoietin-2 binding to Tie-2
T1 construct: purchased R&D Systems, Inc. BT623 (Angiopoietin-2, biotinylated); 313-TI-100 (Tie-2/Fc)
T1 sequence (O15123 19-496): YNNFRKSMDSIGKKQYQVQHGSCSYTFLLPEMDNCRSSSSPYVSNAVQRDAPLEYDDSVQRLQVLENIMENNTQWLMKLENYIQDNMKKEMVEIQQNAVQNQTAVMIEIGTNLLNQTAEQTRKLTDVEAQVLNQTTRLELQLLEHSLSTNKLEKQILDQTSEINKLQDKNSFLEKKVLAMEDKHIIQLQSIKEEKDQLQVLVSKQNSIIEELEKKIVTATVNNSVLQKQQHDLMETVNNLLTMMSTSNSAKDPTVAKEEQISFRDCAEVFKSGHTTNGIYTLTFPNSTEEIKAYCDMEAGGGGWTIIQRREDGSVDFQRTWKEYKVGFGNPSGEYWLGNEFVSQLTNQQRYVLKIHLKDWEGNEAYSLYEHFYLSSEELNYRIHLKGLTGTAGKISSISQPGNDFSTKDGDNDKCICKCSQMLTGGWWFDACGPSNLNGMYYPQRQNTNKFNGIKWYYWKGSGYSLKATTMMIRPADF
Method: As discussed above, Angiopoietin-2 exerts its biological effect by binding to the Tie-2 receptor. Monoclonal antibodies that inhibited Angiopoietin-2/Tie-2 binding were identified by a competitive binding assay using a modified ELISA. The mAb used were products of micro-purification from 50 ml of exhaustive supernatants of the hybridoma pools that were specific for Angiopoietin-2 (see above). 96-well Nunc Immplates™ were coated with 100 μl of recombinant human Tie-2/Fc fusion protein (R&D Systems, Inc., Cat. No. 313-TI-100) at 4 μg/ml by incubating overnight at 4° C. The plates were washed four times using Phosphate Buffer Saline (PBS) with a Skan™ Washer 300 station (SKATRON). The wells were blocked by 100 μl of ABX-blocking buffer (0.5% BSA, 0.1% Tween, 0.01% Thimerosal in PBS) for 1 hour.
Biotinylated recombinant human Angiopoietin-2 (R&D Systems, Inc. Cat. No. […] The plates were incubated at room temperature for two hours before the unbound molecules were washed off. Bound biotinylated Angiopoietin-2 was then detected using 100 μl/well of Streptavidin-HRP conjugate at 1:200 by incubating at room temperature for half an hour. After washing twice, the bound Streptavidin was detected by HRP substrate (R&D Systems, Cat. No. DY998). The plates were incubated for 30 minutes before 450 stop solution (100 μl/well, BioFX, Cat# BSTP-0100-01) was added to terminate the reaction. The light absorbance at 450 nm was determined by a Spectramax Plus reader.
Soluble recombinant Tie-2/Fc fusion protein at 10-fold molar excess to Angiopoietin-2 was used as a positive control. At this concentration, Tie-2/Fc inhibited binding of Angiopoietin-2 to immobilized Tie-2 by 80%.
To quantitate the inhibitory activities of the mAb on Angiopoietin-2 binding to Tie-2, the titer was determined for purified mAbs from the top candidates using a competitive binding assay. Each concentration of the mAb was tested in duplicate. The concentration-response relationship was found by curve fitting using Graphpad Prism™ graphic software (non-linear, Sigmoid curve). The maximal inhibition (efficacy) and IC50 (potency) were calculated by the software.

B1: mAb 3.19.3: fully human anti-Angiopoietin-2 monoclonal antibody, variable regions SEQ ID NO: 5-8; also binds Angiopoietin-1 (antibody, V domains shown)
VH: QVQLVESGGGVVQPGRSLRLSCAASGFTFTNYGMHWGRQAPGKGLEWVAVISHDGNNKYYVDSVKGRFTISRDNSKNTLYLQMNSLRAEDTAVYYCAREGIDFWSGLNWFDPWGQGTLVTVSSA
VL: EIVLTQSPGTLSLSPGERATLSCRASQSITGSYLAWYQQKPGQAPRLLICGASSWATGIPDRFSGSGSGTDFTLTISRLEPEDFAVYYCQQYSSSPITFGQGTRLEIKR
- tumour inhibition [1]: 48%
- Inhibition of Control Tumour Growth Day 28 [2]: 40%
- EC50 ([3]; potency, competitive binding of Angiopoietin-2 to Tie-2, purified mAb): 0.7976 µg/mL
- Efficacy* ([3]; ratio of bound Angiopoietin-2 with mAb (30 μg/ml) versus without mAb): 0.3945
